Experimental findings from article doi:10.1101/2023.12.09.570830 are described below.

This assay concerns the target UmbC1 (untagged, in the Umb1 particle) (Streptomyces coelicolor A3(2) (endogenous)). Nature of the assay: cryo-EM structure.

For UmbB1 (natural protein), the stoichiometry N (as a rule, the number of molecules, sites or subunits per partner or assembly) came out at 5.
